*1 amine or outer side, *2 acyl side, *3 side chain or, on linkers, in order; H or OH if unused. Bridges are numbered along the chain shown (N, C = ends). [ ]: non-standard residue; d: D form. The star is where a group is joined. DOTA = O=C(O)CN1CCN(CC(=O)O)CCN(CC(=O)*)CCN(CC(=O)O)CC1; N(2-mercaptoethyl)Gly = O=C(CN(CCS[*:3])[*:1])[*:2]; 4Amb = NCc1ccc(C(=O)O)cc1; Aoc = NCCCCCCCC(=O)O; CPT = camptothecin
Legend:
Test in all cases: Radioligand binding, displacement of 125I-Tyr11-SRIF-14
[1] = biological target: SSTR3 (Homo sapiens, UniProt P32745); set-up: host or cells: CHO (Chinese Hamster Ovary) cells, membrane preparation; conditions: for % displacement of [^125I] Tyr^11-SRIF-14: hSSTR-3
Chain of SSTR3 (P32745 whole entry): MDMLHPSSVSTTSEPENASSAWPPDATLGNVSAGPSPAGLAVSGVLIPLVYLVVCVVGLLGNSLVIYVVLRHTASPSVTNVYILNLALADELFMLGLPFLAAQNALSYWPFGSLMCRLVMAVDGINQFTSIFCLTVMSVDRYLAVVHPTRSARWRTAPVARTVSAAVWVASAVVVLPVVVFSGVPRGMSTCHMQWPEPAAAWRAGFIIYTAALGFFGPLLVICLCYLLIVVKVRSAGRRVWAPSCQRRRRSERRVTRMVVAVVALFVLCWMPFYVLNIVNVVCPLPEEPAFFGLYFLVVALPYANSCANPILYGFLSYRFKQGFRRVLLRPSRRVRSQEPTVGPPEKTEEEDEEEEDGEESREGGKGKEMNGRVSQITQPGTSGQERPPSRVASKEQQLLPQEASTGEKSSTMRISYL
From the text: (§1) The binding to human cloned receptors SSTR-1, or SSTR-2 or SSTR-3 evaluated in stable and selective transfected CHO (Chinese Hamster Ovary) cells and binding to STSR-4 and SSTR-5 in stable and selective transfected Chem-1 (Rat ChemiSCREEN) cells. […] The binding reactions were filtered, the filters were washed, and the bound radioactivity was counted using a gamma counter.
(§2) The following table depicts the conditions of binding assay to each of the somatostatin receptors used for the evaluations of binding affinities of the tested peptides. All assays were performed by quantitation method of radioligand binding under 25° C. The vehicle was 1% DMSO, the incubation buffer was 25 mM HEPES, pH 7.4, 5 mM MgCl2, 1 mM CaCl2, 0.1% BSA. […] The significance criteria were >50% of max inhibition. […] This specific binding data used for calculation of Bmax values which is the concentration of each of the expressed cloned receptor in its transfected cell system.
(§3) The Results of IC50 values were determined by a non-linear, least squares regression analysis using MathIQ™ (ID Business Solutions Ltd., UK). […] The Hill coefficient (nH), defining the slope of the competitive binding curve, was calculated using MathIQ™.

[2] = biological target: SSTR2 (Homo sapiens, UniProt P30874); set-up: host or cells: CHO (Chinese Hamster Ovary) cells, membrane preparation; conditions: hSSTR-2
Chain of SSTR2 (P30874 whole entry): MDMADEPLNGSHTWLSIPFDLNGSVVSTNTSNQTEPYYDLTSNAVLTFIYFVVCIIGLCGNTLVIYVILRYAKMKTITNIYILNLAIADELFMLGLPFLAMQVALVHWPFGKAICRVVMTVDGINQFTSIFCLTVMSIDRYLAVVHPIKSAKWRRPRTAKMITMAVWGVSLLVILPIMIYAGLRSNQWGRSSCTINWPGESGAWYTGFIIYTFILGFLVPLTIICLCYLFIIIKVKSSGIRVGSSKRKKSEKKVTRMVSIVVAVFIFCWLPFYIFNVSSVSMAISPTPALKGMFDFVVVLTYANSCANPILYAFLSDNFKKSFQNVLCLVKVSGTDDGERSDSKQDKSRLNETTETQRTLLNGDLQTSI
From the text: as §1, §2, §3

[3] = biological target: SSTR1 (Homo sapiens, UniProt P30872); set-up: host or cells: CHO (Chinese Hamster Ovary) cells, membrane preparation; conditions: hSSTR-1
Chain of SSTR1 (P30872 whole entry): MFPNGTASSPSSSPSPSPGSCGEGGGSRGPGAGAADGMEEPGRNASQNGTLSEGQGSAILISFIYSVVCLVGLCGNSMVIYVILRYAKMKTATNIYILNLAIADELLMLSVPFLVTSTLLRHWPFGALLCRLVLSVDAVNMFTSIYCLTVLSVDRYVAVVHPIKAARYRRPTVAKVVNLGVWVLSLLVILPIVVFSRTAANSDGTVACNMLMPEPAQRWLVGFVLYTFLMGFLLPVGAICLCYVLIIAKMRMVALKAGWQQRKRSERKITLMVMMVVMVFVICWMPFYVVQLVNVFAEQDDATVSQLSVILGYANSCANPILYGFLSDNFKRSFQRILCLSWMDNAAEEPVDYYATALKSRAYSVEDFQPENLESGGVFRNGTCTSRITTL
From the text: as §1, §2, §3

[4] = biological target: SSTR5 (Homo sapiens, UniProt P35346); set-up: host or cells: Chem-1 (Rat ChemiSCREEN) cells, membrane preparation; conditions: hSSTR-5
Chain of SSTR5 (P35346 whole entry): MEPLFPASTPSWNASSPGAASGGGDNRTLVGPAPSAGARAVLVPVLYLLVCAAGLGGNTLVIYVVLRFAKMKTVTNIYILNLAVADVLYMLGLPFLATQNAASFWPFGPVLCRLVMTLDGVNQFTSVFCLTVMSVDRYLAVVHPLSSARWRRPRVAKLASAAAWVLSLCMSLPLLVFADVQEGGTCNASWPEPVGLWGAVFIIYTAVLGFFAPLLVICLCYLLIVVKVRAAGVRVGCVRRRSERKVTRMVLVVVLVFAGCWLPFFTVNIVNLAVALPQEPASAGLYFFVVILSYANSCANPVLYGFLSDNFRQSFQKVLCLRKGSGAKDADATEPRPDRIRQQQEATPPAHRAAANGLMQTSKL
From the text: as §1, §2, §3

[5] = biological target: T1, hSSTR-4 (Homo sapiens, UniProt P31391); conditions: hSSTR-4
T1 construct: host or cells: Chem-1 (Rat ChemiSCREEN) cells, membrane preparation
T1 sequence (P31391 whole entry): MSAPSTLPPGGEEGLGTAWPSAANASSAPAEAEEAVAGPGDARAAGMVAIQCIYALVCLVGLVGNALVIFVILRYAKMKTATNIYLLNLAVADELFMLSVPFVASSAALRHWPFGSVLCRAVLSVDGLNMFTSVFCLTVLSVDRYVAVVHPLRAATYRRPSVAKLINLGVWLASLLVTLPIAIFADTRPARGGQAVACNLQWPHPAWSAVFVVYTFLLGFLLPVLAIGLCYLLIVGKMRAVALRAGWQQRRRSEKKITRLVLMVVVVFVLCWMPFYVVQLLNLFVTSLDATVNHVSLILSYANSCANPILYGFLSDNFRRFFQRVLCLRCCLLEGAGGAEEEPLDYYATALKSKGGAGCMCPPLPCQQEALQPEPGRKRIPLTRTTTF
From the text: as §1, §2, §3

(DOTA)2-Lys^1-D-Phe^2-Arg^3-Cys^4-Phe^5-D-Trp^6-Lys^7-Thr^8-Phe^9-NTEG^10-NH2 (cyclo 3-9) ({DOTA}-K(DOTA)[dF]RCF[dW]KTF[N(2-mercaptoethyl)Gly]-NH2; disulfide 4-10 (inferred); not fully specified; printed as (DOTA)2-Lys1-D-Phe2-Arg3-Cys4-Phe5-D-Trp6-Lys7-Thr8-Phe9-NTEG10-NH2 (cyclo 3-9)) [SEQ ID NO: 16]
% displacement of [^125I] Tyr^11-SRIF-14 ([1]; at 1 nM (in brackets)): 47%
% displacement of [^125I] Tyr^11-SRIF-14 ([1]; at 10 nM): 88%
% displacement of [^125I] Tyr^11-SRIF-14 ([2]; at 1 nM (in brackets)): 6%
% displacement of [^125I] Tyr^11-SRIF-14 ([2]; at 10 nM): 2%
% displacement of [^125I] Tyr^11-SRIF-14 ([3]; at 1 nM (in brackets)): 0%
% displacement of [^125I] Tyr^11-SRIF-14 ([3]; at 10 nM): 5%
% displacement of [^125I] Tyr^11-SRIF-14 ([4]; at 1 nM (in brackets)): 0%
% displacement of [^125I] Tyr^11-SRIF-14 ([4]; at 10 nM): 3%
% displacement of [^125I] Tyr^11-SRIF-14 ([5]; at 1 nM (in brackets)): 0(0) %
% displacement of [^125I] Tyr^11-SRIF-14 ([5]; at 10 nM): 0(0) %

CPT-8-aminooctanoic acid-D-Phe^1-Arg^2-Cys^3-Phe^4-D-Trp^5-Lys^6-Thr^7-Phe^8-NTEG^9-NH2 (cyclo 3-9) ({CPT-Aoc}-[dF]RCF[dW]KTF[N(2-mercaptoethyl)Gly]-NH2; disulfide 3-9) [SEQ ID NO: 27]
affinity to SSTR3 [1]: ≤ 10 nM
affinity and selectivity to SSTR3 (in words) ([1]; binding data): the same selectivity to SSTR3 as SEQ ID NO: 1
% displacement of [^125I] Tyr^11-SRIF-14 ([1]; at 1 nM (in brackets)): 12%
% displacement of [^125I] Tyr^11-SRIF-14 ([1]; at 10 nM): 51%
% displacement of [^125I] Tyr^11-SRIF-14 ([2]; at 1 nM (in brackets)): 0(0) %
% displacement of [^125I] Tyr^11-SRIF-14 ([2]; at 10 nM): 0(0) %
% displacement of [^125I] Tyr^11-SRIF-14 ([3]; at 1 nM (in brackets)): 0%
% displacement of [^125I] Tyr^11-SRIF-14 ([3]; at 10 nM): 3%
% displacement of [^125I] Tyr^11-SRIF-14 ([4]; at 1 nM (in brackets)): 0(0) %
% displacement of [^125I] Tyr^11-SRIF-14 ([4]; at 10 nM): 0(0) %
% displacement of [^125I] Tyr^11-SRIF-14 ([5]; at 1 nM (in brackets)): 0(0) %
% displacement of [^125I] Tyr^11-SRIF-14 ([5]; at 10 nM): 0(0) %

DOTA-4-Amb-D-Phe^1-Arg^2-Cys^3-Phe^4-D-Trp^5-Lys^6-Thr^7-Phe^8-NTEG^9-NH2 (cyclo 3-9) ({DOTA-4Amb}-[dF]RCF[dW]KTF[N(2-mercaptoethyl)Gly]-NH2; disulfide 3-9) [SEQ ID NO: 18]
% displacement of [^125I] Tyr^11-SRIF-14 ([1]; at 1 nM (in brackets)): 49%
% displacement of [^125I] Tyr^11-SRIF-14 ([1]; at 10 nM): 85%
% displacement of [^125I] Tyr^11-SRIF-14 ([2]; at 1 nM (in brackets)): 0(0) %
% displacement of [^125I] Tyr^11-SRIF-14 ([2]; at 10 nM): 0(0) %
% displacement of [^125I] Tyr^11-SRIF-14 ([3]; at 1 nM (in brackets)): 0%
% displacement of [^125I] Tyr^11-SRIF-14 ([3]; at 10 nM): 4%
% displacement of [^125I] Tyr^11-SRIF-14 ([4]; at 1 nM (in brackets)): 0(0) %
% displacement of [^125I] Tyr^11-SRIF-14 ([4]; at 10 nM): 0(0) %
% displacement of [^125I] Tyr^11-SRIF-14 ([5]; at 1 nM (in brackets)): 0%
% displacement of [^125I] Tyr^11-SRIF-14 ([5]; at 10 nM): 8%

DOTA-8-aminooctanoic acid-D-Phe^1-Arg^2-Cys^3-Phe4-D-Trp^5-Lys^6-Thr^7-Phe^8-NTEG^9-NH^2(cyclo 3-9) ({DOTA-Aoc}-[dF]RCF[dW]KTF[N(2-mercaptoethyl)Gly]-NH2; disulfide 3-9) [SEQ ID NO: 15]
% displacement of [^125I] Tyr^11-SRIF-14 ([1]; at 1 nM (in brackets)): 49%
% displacement of [^125I] Tyr^11-SRIF-14 ([1]; at 10 nM): 87%
% displacement of [^125I] Tyr^11-SRIF-14 ([2]; at 1 nM (in brackets)): 1%
% displacement of [^125I] Tyr^11-SRIF-14 ([2]; at 10 nM): 0%
% displacement of [^125I] Tyr^11-SRIF-14 ([3]; at 1 nM (in brackets)): 6%
% displacement of [^125I] Tyr^11-SRIF-14 ([3]; at 10 nM): 18%
% displacement of [^125I] Tyr^11-SRIF-14 ([4]; at 1 nM (in brackets)): 0(0) %
% displacement of [^125I] Tyr^11-SRIF-14 ([4]; at 10 nM): 0(0) %
% displacement of [^125I] Tyr^11-SRIF-14 ([5]; at 1 nM (in brackets)): 0(0) %
% displacement of [^125I] Tyr^11-SRIF-14 ([5]; at 10 nM): 0(0) %

DOTA-Ala^1-D-Phe^2-Arg^3-Cys^4-Phe^5-D-Trp^6-Lys^7-Thr^8-Phe^9-NTEG^10-NH2 (cyclo 4-10) ({DOTA}-A[dF]RCF[dW]KTF[N(2-mercaptoethyl)Gly]-NH2; disulfide 4-10; SMILES C[C@H](NC(=O)CN1CCN(CC(=O)O)CCN(CC(=O)O)CCN(CC(=O)O)CC1)C(=O)N[C@H](Cc1ccccc1)C(=O)N[C@@H](CCCNC(=N)N)C(=O)N[C@H]1CSSCCN(CC(N)=O)C(=O)[C@H](Cc2ccccc2)NC(=O)[C@H]([C@@H](C)O)NC(=O)[C@H](CCCCN)NC(=O)[C@@H](Cc2c[nH]c3ccccc23)NC(=O)[C@H](Cc2ccccc2)NC1=O) [SEQ ID NO: 12]
% displacement of [^125I] Tyr^11-SRIF-14 ([1]; at 1 nM (in brackets)): 64%
% displacement of [^125I] Tyr^11-SRIF-14 ([1]; at 10 nM): 93%
% displacement of [^125I] Tyr^11-SRIF-14 ([2]; at 1 nM (in brackets)): 0(0) %
% displacement of [^125I] Tyr^11-SRIF-14 ([2]; at 10 nM): 0(0) %
% displacement of [^125I] Tyr^11-SRIF-14 ([3]; at 1 nM (in brackets)): 0%
% displacement of [^125I] Tyr^11-SRIF-14 ([3]; at 10 nM): 10%
% displacement of [^125I] Tyr^11-SRIF-14 ([4]; at 1 nM (in brackets)): 0%
% displacement of [^125I] Tyr^11-SRIF-14 ([4]; at 10 nM): 13%
% displacement of [^125I] Tyr^11-SRIF-14 ([5]; at 1 nM (in brackets)): 0(0) %
% displacement of [^125I] Tyr^11-SRIF-14 ([5]; at 10 nM): 0(0) %
